Measured values: patent publication US20220088195A1, “Prevention or mitigation of T-cell bispecific antibody-related adverse effects” (Hoffmann-La Roche Inc., priority 2020, published 2022)

Test system: MKN45 NLR target cells
Assay: Reversibility killing assay with two and three stimulations (OFF/ON, ON/OFF/ON), MKN45 NLR + CEA-TCB, Incucyte
Type: cell-based, human
Details: 1 nM CEA-TCB, no dasatinib
Experimental: FIG. 16. In vitro killing assay set-up and timelines. PBMCs were stimulated on MKN45 NLR (E:T=10:1) target cells with 1 nM CEA-TCB for 96 hours. Activated PBMCs were washed and restimulated on new MKN45 NLR target cells (E:T=10:1) with 1 nM CEA-TCB in the presence of 25 nM dasatinib for 72 hours. Activated PBMCs were washed to remove dasatinib and restimulated on new MKN45 NLR target cells (E:T=10:1) with 1 nM CEA-TCB (“ON/OFF/ON”, see upper row of table), or vice versa (“OFF/ON/OFF”, see lower row of table). Killing was followed by Incucyte®.
FIG. 17. Real time killing of MKN45 NLR target cells by CEA-TCB in the presence of 25 nM dasatinib (0-72 h) upon first stimulation and in the absence of 25 nM dasatinib (96-170 h) upon restimulation, in the assay of FIG. 16 (“OFF/ON”).
FIG. 19. Real time killing of MKN45 NLR target cells by CEA-TCB in the assay of FIG. 16 (“ON/OFF/ON”).
FIG. 21. CEA-TCB mediated target cell killing. (A) PBMCs were stimulated on MKN45 NLR (E:T=10:1) target cells with 1 nM CEA-TCB for 96 hours in the presence and absence of dasatinib. (B) Activated PBMCs were washed to remove dasatinib and restimulated on new MKN45 NLR target cells (E:T=10:1) with 1 nM CEA-TCB. Killing was followed by Incucyte®.
We then verified if dasatinib's effect is reversible upon its removal. Therefore we set-up a killing assay with two and three stimulations in the presence and absence of dasatinib and followed the killing kinetics using an Incucyte® system (FIG. 16). After each stimulation, effector cells were washed and re-stimulated on fresh MKN45 NLR target cells with 1 nM CEA TCB in the presence and absence of dasatinib allowing to mimic OFF/ON switch and ON/OFF/ON switch.
Lastly, we evaluated if the effect of dasatinib was reversible on activated T cells. Consequently, we supplemented the media with 25 nM dasatinib upon the second stimulation with 1 nM CEA-TCB to prevent killing from activated T cells and then removed the dasatinib upon third stimulation with 1 nM CEA-TCB to verify if killing would be restored. […] We concluded that the effect of dasatinib in the prevention of T cell activation and cytotoxicity is reversible.
For T-cell engaging antibodies, cytokine release peaks are higher upon the first treatment than after subsequent treatments. We were curious to see if low doses of dasatinib could prevent cytokine release while minimally affecting TCB-efficacy upon first stimulation. In killing assays as described in FIG. 16, the cytokine levels upon first treatment with 1 nM CEA-TCB in the presence of 6.25 nM and 12.5 nM dasatinib and upon second treatment with 1 nM CEA-TCB in the absence of dasatinib were measured in the supernatants. […] Its removal upon second stimulation may also balance the cytokine release and restore TCB-induced cytotoxicity due to the reversibility properties of dasatinib.

B1: CEA-TCB: T cell bispecific antibody binding CEA and CD3 (SEQ ID NOs 28-47) (antibody, chains of the INN, looked up, V domains shown)
VH: QVQLVQSGAEVKKPGASVKVSCKASGYTFTEFGMNWVRQAPGQGLEWMGWINTKTGEATYVEEFKGRVTFTTDTSTSTAYMELRSLRSDDTAVYYCARWDFAYYVEAMDYWGQGTTVTVSS
VL: DIQMTQSPSSLSASVGDRVTITCKASAAVGTYVAWYQQKPGKAPKLLIYSASYRKRGVPSRFSGSGSGTDFTLTISSLQPEDFATYYCHQYYTYPLFTFGQGTKLEIK
VH2: QVQLVQSGAEVKKPGASVKVSCKASGYTFTEFGMNWVRQAPGQGLEWMGWINTKTGEATYVEEFKGRVTFTTDTSTSTAYMELRSLRSDDTAVYYCARWDFAYYVEAMDYWGQGTTVTVSS
VL2: QAVVTQEPSLTVSPGGTVTLTCGSSTGAVTTSNYANWVQEKPGQAFRGLIGGTNKRAPGTPARFSGSLLGGKAALTLSGAQPEDEAEYYCALWYSNLWVFGGGTKLTVL
For B1, the “killing of MKN45 cells after first stimulation” value was “triggered the killing”.
